PMC7007383 (Cancer discovery, 2019)
Values belong to the binder of their own block, whether it stands above or below them.

How the values were obtained:
[1] = target: recombinant RHOA wild type (human, UniProt P61586 1-193); assay: other fluorescence titration
[2] = target: recombinant RHOA Y42C (human, UniProt P61586 1-193, Y42C); assay: other fluorescence titration
Chain of recombinant RHOA Y42C (P61586 whole entry Y42C): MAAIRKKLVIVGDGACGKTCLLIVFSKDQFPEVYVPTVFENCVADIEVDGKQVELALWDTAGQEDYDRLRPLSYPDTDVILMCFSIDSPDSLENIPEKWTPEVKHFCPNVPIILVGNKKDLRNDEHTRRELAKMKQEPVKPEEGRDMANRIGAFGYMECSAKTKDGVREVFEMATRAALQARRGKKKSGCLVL

Chain of recombinant RHOA wild type (P61586 whole entry): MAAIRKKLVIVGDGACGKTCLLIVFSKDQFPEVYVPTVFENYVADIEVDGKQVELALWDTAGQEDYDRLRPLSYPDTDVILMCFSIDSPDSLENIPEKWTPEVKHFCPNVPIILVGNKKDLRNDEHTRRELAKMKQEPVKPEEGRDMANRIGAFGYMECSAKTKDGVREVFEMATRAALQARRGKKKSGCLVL

Kd [1]: 460 ± 60 nM
B1: mDia RHOA-GTP binding domain (RBD) (domain or fragment)
chain: LQDISDEQVLVLFEQMLVDMNLNEEKQQPLREKDIVIKREMVSQYLHTSKAGMNQKESSRSAMMYIQELRSGLRDMHLLSCLESLRVSLNNNPVSWVQTFGAEGLASLLDILKRLHDEKEETSGNYDSRNQHEIIRCLKAFMNNKFGIKTMLETEEGILLLVRAMDPAVPNMMIDAAKLLSALCILPQPEDMNERVLEAMTERAEMDEVERFQPLLDGLKSGTSIALKVGCLQLINALITPAEELDFRVHIRSELMRLGLHQVLQELREIENEDMKVQLCVFDEQGDEDFFDLKGRLDDIRMEMDDFGEVFQIILNTVKDSKAEPHFLSILQHLLLVRNDYEARPQYYKLIEECVSQIVLHKNGTD

Kd [1]: 500 ± 40 nM
B2: Rhotekin RHOA-GTP binding domain (RBD) (domain or fragment, UniProt Q8C6B2 17-98, looked up)
chain: ALEMEFKRGRFRLSFFSESPEDTELQRKLDHEIRMRDGACKLLAACSQREQALEATKSLLVCNSRILSYMGELQRRKEAQVL

Kd [1]: 380 ± 30 nM
fold change of binding against RHOA WT [2]: 12 fold
B3: ROCK RHOA-GTP binding domain (RBD) (domain or fragment)
chain: TKDIEILRRENEELTEKMKKAEEEYKLEKEEEISNLKAAFEKNINTERTLKTQAVNKLAEIMNRKDF
